Where two headings read alike, the source gives them in different places.
What was measured:
[1] = molecular target: T1, mouse Trop2 on ExpiCHO cells overexpressing mouse Trop2 (mouse, UniProt Q8BGV3 25-317); test: flow cytometry on ExpiCHO cells overexpressing mouse Trop2, percent of cells bound; histogram overlay at 66.67 nM
T1 construct: Cell-surface form
T1 sequence: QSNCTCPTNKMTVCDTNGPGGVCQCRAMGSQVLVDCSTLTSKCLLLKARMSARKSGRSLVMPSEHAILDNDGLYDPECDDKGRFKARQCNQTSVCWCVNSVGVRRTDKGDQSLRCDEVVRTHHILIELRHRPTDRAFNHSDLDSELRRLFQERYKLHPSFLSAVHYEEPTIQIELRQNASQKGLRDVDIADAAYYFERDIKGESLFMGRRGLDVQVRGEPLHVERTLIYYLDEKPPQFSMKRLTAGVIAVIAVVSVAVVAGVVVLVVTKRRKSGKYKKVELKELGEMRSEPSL

[2] = molecular target: T2, human TROP2 (purified recombinant antigen, Acro Biosystems Cat #TR2-H5223) (human, UniProt P09758 27-274); test: SPR, Carterra LSA; antibody captured on anti-human IgG, antigen injected; 1:1 fit
T2 construct: Bought recombinant protein; also called huTROP2
T2 sequence: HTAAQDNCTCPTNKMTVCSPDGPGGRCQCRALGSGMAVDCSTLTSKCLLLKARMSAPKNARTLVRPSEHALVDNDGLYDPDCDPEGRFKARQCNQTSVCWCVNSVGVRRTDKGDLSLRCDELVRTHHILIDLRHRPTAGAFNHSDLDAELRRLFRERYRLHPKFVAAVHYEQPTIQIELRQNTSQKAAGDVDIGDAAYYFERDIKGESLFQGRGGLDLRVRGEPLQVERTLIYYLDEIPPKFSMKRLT

[3] = molecular target: T3, human EpCAM (purified recombinant antigen, Acro Biosystems Cat #EPM-H5223) (human, UniProt P16422 24-265); test: SPR, Carterra LSA; antibody captured on anti-human IgG, antigen injected
T3 construct: Bought recombinant protein
T3 sequence: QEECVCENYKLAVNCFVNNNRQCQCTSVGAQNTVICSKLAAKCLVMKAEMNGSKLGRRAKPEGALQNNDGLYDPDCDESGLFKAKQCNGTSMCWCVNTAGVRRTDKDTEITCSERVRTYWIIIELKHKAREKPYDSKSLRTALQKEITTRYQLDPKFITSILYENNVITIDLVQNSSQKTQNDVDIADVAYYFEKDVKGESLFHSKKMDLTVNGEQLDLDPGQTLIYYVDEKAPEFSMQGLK

[4] = molecular target: T4, human Trop2 on cells (FaDu cells, endogenous; ExpiCHO cells overexpressing human Trop2) (human, UniProt P09758 27-323); test: flow cytometry on FaDu cells (endogenous human Trop2); average of n=1-3 experiments
T4 construct: Cell-surface form
T4 sequence: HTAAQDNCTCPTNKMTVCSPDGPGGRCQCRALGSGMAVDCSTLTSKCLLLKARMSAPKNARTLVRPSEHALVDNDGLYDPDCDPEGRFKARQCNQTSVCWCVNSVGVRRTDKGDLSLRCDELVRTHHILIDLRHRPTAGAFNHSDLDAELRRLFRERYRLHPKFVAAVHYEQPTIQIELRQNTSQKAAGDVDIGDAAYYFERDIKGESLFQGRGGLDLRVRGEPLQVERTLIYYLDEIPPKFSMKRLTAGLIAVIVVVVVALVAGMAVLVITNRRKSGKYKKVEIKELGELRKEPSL

[5] = molecular target: T2, human TROP2 (purified recombinant …); test: SPR, Carterra LSA; antibody captured on anti-human IgG, antigen injected; 1:1 fit; remark: listed apart in the source
[6] = molecular target: T5, cynomolgus/rhesus TROP2 (purified recombinant antigen, Acro Biosystems Cat #TR2-R52H3) (cynomolgus/rhesus, UniProt P09758 27-274 (human entry)); test: as above
T5 construct: Bought recombinant protein; also called cyTROP2; cyno/rhesus TROP2
T5 chain: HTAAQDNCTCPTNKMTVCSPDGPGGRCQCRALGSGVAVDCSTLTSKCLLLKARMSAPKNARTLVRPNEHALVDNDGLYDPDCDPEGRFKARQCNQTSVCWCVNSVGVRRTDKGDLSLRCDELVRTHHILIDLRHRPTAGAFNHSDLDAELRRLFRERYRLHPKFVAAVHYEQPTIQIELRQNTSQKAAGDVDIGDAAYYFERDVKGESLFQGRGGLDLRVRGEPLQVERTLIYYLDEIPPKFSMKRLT

binding result [1]: no binding (tested: 66.67 nM)
Kd [2]: 0.31 nM
koff [2]: 0.000143 s⁻¹
kon [2]: 457000 M⁻¹ s⁻¹
EC50 [4]: 1.09 nM
Kd [5]: 0.31 nM
Kd [6]: 4.96 nM
B1: SD-071877 (antibody, V domains shown)
VH: AVTLDESGGGLQTPGGALSLVCKASGFDFSGYGMGWVRQAPGKGLEWVAGITNDGRYIGHGSAVKGRATISRDNGQSTVRLQLNNLRAEDTGTYFCTKCAYRSGCDYEAGSIDAWGHGTEVIVSS
VL: ALALTQPSSVSANLGGTVKITCSGDNNWYGWYQQKSPGSAPVTVIYYDDKRPSDIPSRFSGSRSGSTGTLTITGVQAEDEAVYFCGNRDSSAGYVGIFGAGTTLTVL
notes: Chicken/human chimera
binding result [3]: no binding (tested: 1 µM top concentration)

Reference: patent US20250019457A1 (IBIO, published 2025)
